Data on 52 molecules can be found in patent publication US20220282217A1 (BIONTECH US, published 2022).

Assay [1] addresses HLA-A02.01 (human). Put plainly: pMHC-I complex dissociation at 37 C, 125I-b2m, half-life. Here is the method:
(§1) Briefly, synthetic genes encoding biotinylated MHC-I heavy and light chains are expressed in E. coli and purified from inclusion bodies using standard methods. […] These reactions are carried out in streptavidin coated microplates to bind the biotinylated MHC-I heavy chains to the surface and allow measurement of radiolabeled light chain to monitor complex formation. Dissociation is initiated by addition of higher concentrations of unlabeled light-chain and incubation at 37° C. Stability is defined as the length of time in hours it takes for half of the complexes to dissociate, as measured by scintillation counts.

In assay [2] the target is HLA-A02.01 (human). Put plainly: competition vs radiolabeled reference peptide on purified MHC I, gel filtration. Here is the method: (§2) Peptides were incubated at varying concentrations with these complexes for 2 days, and the amount of remaining radiolabeled peptide bound to […] was measured using size exclusion gel-filtration.
In general terms: In gel filtration, larger molecules generally elute earlier.

The target of assay [3] is T1, HLA class I molecule A02.01.
T1 construct: Purified MHC class I complex; also called HLA-A02:01
Description: competition with radiolabeled reference peptide on purified MHC I. The method, then: as §2

Assay [4] has the same target. Put plainly: pMHC-I dissociation half-life, 125I-b2m. Here is the method: as §1

Consider IIIEFMTYG (also called ABL1, T315I), for which, in the assay with HLA-A02.01 [1], the “Stability (T1/2 (h))” value amounted to 0 h. Besides, the IC50 in the assay with HLA-A02.01 [2] was found to be 779 nM.
Taken in the same sequence, the figures for GVYTFLPST (also called ESR1, S463P) were 1.3 h and 779 nM.
In the case of NVVPLCDLLL (also called ESR1, Y537C), in the assay with HLA-A02.01 [1], the “Stability (T1/2 (h))” value stood at 0 h. This molecule also registered an IC50 with HLA-A02.01 [2] of 1370 nM.
Taken in the same sequence, the figures for NVVPLNDLLL (also called ESR1, Y537N) were 0 h and 4190 nM.
Take NVVPLSDLLL (also called ESR1, Y537S): the “Stability (T1/2 (h))” value in the assay with HLA-A02.01 [1] is 0 h. The molecule further yielded an IC50 with HLA-A02.01 [2] of 741 nM.
On to IIIEFMTYGN (also called ABL1, T315I), for which the “Stability (T1/2 (h))” value with HLA-A02.01 [1] was found to be 0 h.
In assay [3], ALSASNSCFI (also called FRG1B, L52S) showed an IC50 of 226 nM. Also, in assay [4], the “Stability (T1/2 (h))” value amounted to 0.8 h.
With IIEFMTYGNL (also called ABL1, T315I), in the assay with HLA-A02.01 [1], the “Stability (T1/2 (h))” value turned out to be 0 h. In the assay with HLA-A02.01 [2], this molecule displayed an IC50 of 9700 nM.
As to LLPIPPLSPS (also called MYC, T58I), the “Stability (T1/2 (h))” value in assay [4] is 0 h.
Take CLADVLLSV (also called APC, AVEW): the “Stability (T1/2 (h))” value with HLA-A02.01 [1] turned out to be 24 h. Moreover, the IC50 with HLA-A02.01 [2] is 219 nM.

B1: … (peptide)
peptide: LQMDFLVHPA
notes: likely a print error; also called APC, VHPA
B1: in the assay with HLA-A02.01 [1], the “Stability (T1/2 (h))” value is 1.5 h. The IC50 with HLA-A02.01 [2] was found to be 68 nM.
For LIMQLMPFGC (also called EGFR, T790M), in the assay with HLA-A02.01 [1], the “Stability (T1/2 (h))” value is 0.4 h.
ILLPEDTPPL (also called MSH6(+1)) returned an IC50 in assay [3] of 6.7 nM.
Take PLCDLLLEM (also called ESR1, Y537C): in the assay with HLA-A02.01 [1], the “Stability (T1/2 (h))” value is 0.8 h. The same molecule had an IC50 with HLA-A02.01 [2] of 602 nM.
Regarding PLSDLLLEM (also called ESR1, Y537S), the “Stability (T1/2 (h))” value with HLA-A02.01 [1] worked out at 2.7 h. For the same molecule, the IC50 in the assay with HLA-A02.01 [2] is 404 nM.
Taken in the same sequence, the figures for PLNDLLLEM (also called ESR1, Y537N) were 4.2 h and 151 nM.
FQNGKMALS (also called FRG1B, L52S) displayed an IC50 in assay [3] of 3280 nM. Moreover, the “Stability (T1/2 (h))” value in assay [4] came out at 0 h.
In the case of VIIEYCCYG (also called KIT, T670I), the half-inhibitory concentration (IC50) in assay [3] was found to be 191 nM. The “Stability (T1/2 (h))” value in assay [4] was 0.5 h.
In assay [3], ITAFFFCWI (also called NDUFC2 (-KCDT14)(+1)) returned a half-inhibitory concentration (IC50) of 7490 nM.

B2: ALEEKKGNYV (peptide)
peptide: ALEEKKGNYV
notes: also called EGFRvIII (internal deletion)
For B2, the “Stability (T1/2 (h))” value with HLA-A02.01 [1] was 0 h. The IC50 with HLA-A02.01 [2] worked out at 141 nM.
For KLGGGQHGEV (also called ABL1, Y253H), the “Stability (T1/2 (h))” value in the assay with HLA-A02.01 [1] was 0.4 h. The concentration for half-maximal inhibition (IC50) in the assay with HLA-A02.01 [2] came out at 387 nM.
In turn, IIEYCCYGDL (also called KIT, T670I) showed an IC50 in assay [3] of 7310 nM. In addition, the “Stability (T1/2 (h))” value in assay [4] amounted to 0 h.
In assay [3], IIEYCFYGDL (also called PDGFRa, T674I) displayed an IC50 of 1090 nM. Also, the “Stability (T1/2 (h))” value in assay [4] stood at 0 h.
Take GLLLEMLDA (also called ESR1, D538G): in the assay with HLA-A02.01 [1], the “Stability (T1/2 (h))” value was found to be 0.4 h. The molecule further returned a 50% inhibitory concentration (IC50) with HLA-A02.01 [2] of 558 nM.
In the case of ILMELMAGG (also called ALK, L1196M), the “Stability (T1/2 (h))” value in the assay with HLA-A02.01 [1] is 0.5 h. Further, the IC50 with HLA-A02.01 [2] is 223 nM.
Consider SLYIVGFYGA (also called MEK, P124L), for which the concentration for half-maximal inhibition (IC50) in assay [3] worked out at 390 nM. Further, the “Stability (T1/2 (h))” value in assay [4] was 0.4 h.
Consider LMELMAGGDL (also called ALK, L1196M), for which, in the assay with HLA-A02.01 [1], the “Stability (T1/2 (h))” value stood at 8.9 h. In the assay with HLA-A02.01 [2], this molecule yielded an IC50 of 311 nM.
ITAFFLLDI (also called NDUFC2 (-KCDT14)(-1)): in assay [3], the IC50 stood at 78.7 nM.
Molecule HMNIANLLGA (also called KIT, V654A) gave an IC50 in assay [3] of 430 nM. The “Stability (T1/2 (h))” value in assay [4] turned out to be 0 h.
As to KVLQMDFLV (also called APC, VHPA), in the assay with HLA-A02.01 [1], the “Stability (T1/2 (h))” value worked out at 6.4 h. The IC50 in the assay with HLA-A02.01 [2] turned out to be 11 nM.
In turn, SLYIVGFYG (also called MEK, P124L) displayed an IC50 in assay [3] of 1060 nM. For the same molecule, the “Stability (T1/2 (h))” value in assay [4] is 0 h.
For the molecule YIIIEFMTYG (also called ABL1, T315I), the “Stability (T1/2 (h))” value with HLA-A02.01 [1] is 0 h. This molecule registered an IC50 in the assay with HLA-A02.01 [2] of 186 nM.
YLGNHMNIAN (also called KIT, V654A): the IC50 in assay [3] was 1340 nM. Besides, the “Stability (T1/2 (h))” value in assay [4] came to 0 h.
In the same order, the values of VLHESNSPYI (also called MEK, C121S) are 131 nM and 1.9 h.
In the case of VLTVTSTDV (also called FGFR3: TACC3), in the assay with HLA-A02.01 [1], the “Stability (T1/2 (h))” value was 1.1 h. The molecule further showed a half-maximal inhibitory concentration (IC50) with HLA-A02.01 [2] of 295 nM.
Taken in the same sequence, the figures for TQISSATEYL (also called ABL1, M351T) were 0 h and 2640 nM.
In the case of PLYGLLLEM (also called ESR1, D538G), the “Stability (T1/2 (h))” value with HLA-A02.01 [1] was 0.7 h. This molecule registered an IC50 in the assay with HLA-A02.01 [2] of 640 nM.
In turn, YITAFFLLDI (also called NDUFC2 (-KCDT14)(-1)) had an IC50 in assay [3] of 64.5 nM.
As for ILMELMAGGD (also called ALK, L1196M), the “Stability (T1/2 (h))” value with HLA-A02.01 [1] came to 0 h. Besides, in the assay with HLA-A02.01 [2], the IC50 is 3450 nM.
As to IANLLGACTI (also called KIT, V654A), in assay [3], the IC50 came out at 6420 nM. Besides, the “Stability (T1/2 (h))” value in assay [4] was 0 h.
Take NVVPLYGLL (also called ESR1, D538G): the “Stability (T1/2 (h))” value with HLA-A02.01 [1] stood at 0 h. The same molecule showed an IC50 with HLA-A02.01 [2] of 10500 nM.
Consider PLCDLLLEML (also called ESR1, Y537C), for which the “Stability (T1/2 (h))” value in the assay with HLA-A02.01 [1] was found to be 0.9 h. Besides, in the assay with HLA-A02.01 [2], the IC50 worked out at 2010 nM.
Turning to PLNDLLLEML (also called ESR1, Y537N), in the assay with HLA-A02.01 [1], the “Stability (T1/2 (h))” value came out at 0 h. Also, in the assay with HLA-A02.01 [2], the IC50 was determined as 12000 nM.

B3: PLSDLLLEML (peptide)
peptide: PLSDLLLEML
notes: also called E5R1, Y537S (so in the source); ESR1, Y537S
Turning to B3, in the assay with HLA-A02.01 [1], the “Stability (T1/2 (h))” value was 0 h. The molecule also showed a 50% inhibitory concentration (IC50) with HLA-A02.01 [2] of 6470 nM.
As to VMAYVMAGV (also called HER2, G776insYVMA), the IC50 in assay [3] came out at 2 nM. For the same molecule, the “Stability (T1/2 (h))” value in assay [4] was found to be 16.5 h.
For FILMELMAGG (also called ALK, L1196M), the “Stability (T1/2 (h))” value with HLA-A02.01 [1] came out at 0 h. In the assay with HLA-A02.01 [2], this molecule displayed an IC50 of 1580 nM.
For TIGGPTLVII (also called KIT, T670I), the half-inhibitory concentration (IC50) in assay [3] amounted to 10700 nM. In assay [4], the “Stability (T1/2 (h))” value was 0 h.
With MNIANLLGA (also called KIT, V654A), in assay [3], the IC50 is 128 nM. In assay [4], the “Stability (T1/2 (h))” value came to 0.3 h.
On to VLLSVHLIV (also called APC, AVEW), for which the “Stability (T1/2 (h))” value in the assay with HLA-A02.01 [1] is 11 h. The IC50 with HLA-A02.01 [2] amounted to 72 nM.
For the molecule NVVPLCDLL (also called ESR1, Y537C), the “Stability (T1/2 (h))” value with HLA-A02.01 [1] came out at 0 h. Besides, the IC50 with HLA-A02.01 [2] stood at 3030 nM.
Taken in the same sequence, the figures for NVVPLSDLL (also called ESR1, Y537S) were 0 h and 916 nM.
NVVPLNDLL (also called ESR1, Y537N): the “Stability (T1/2 (h))” value in the assay with HLA-A02.01 [1] came out at 0 h. The same molecule showed an IC50 with HLA-A02.01 [2] of 2900 nM.

A word on the IC50: it is the midpoint of a concentration-inhibition curve. A higher IC50 goes with a need for much substance.
